{
  "source": "paper PMC12363979",
  "about": "(International Journal of Nanomedicine, 2025)",
  "binders": {"B1": {"name": "D25 monoclonal antibody (IgG) (antibody, V domains shown)", "VH": "QVQLVQSGAEVKKPGSSVMVSCQASGGPLRNYIINWLRQAPGQGPEWMGGIIPVLGTVHYAPKFQGRVTITADESTDTAYIHLISLRSEDTAMYYCATETALVVSTTYLPHYFDNWGQGTLVTVSS", "VL": "DIQMTQSPSSLSAAVGDRVTITCQASQDIVNYLNWYQQKPGKAPKLLIYVASNLETGVPSRFSGSGSGTDFSLTISSLQPEDVATYYCQQYDNLPLTFGGGTKVEIK"}, "B2": {"name": "AM14 monoclonal antibody (IgG) (antibody, V domains shown)", "VH": "EVQLVESGGGVVQPGRSLRLSCAASGFSFSHYAMHWVRQAPGKGLEWVAVISYDGENTYYADSVKGRFSISRDNSKNTVSLQMNSLRPEDTALYYCARDRIVDDYYYYGMDVWGQGATVTVSS", "VL": "DIQMTQSPSSLSASVGDRVTITCQASQDIKKYLNWYHQKPGKVPELLMHDASNLETGVPSRFSGRGSGTDFTLTISSLQPEDIGTYYCQQYDNLPPLTFGGGTKVEIK"}},
  "key": {"[1]": {"molecular_target": "T1, DS2-I53-50 nanoparticle (DS2-I53-50A co-assembled with I53-50B) (human RSV A, Long strain (paper); …, stabilised)", "T1 chain": "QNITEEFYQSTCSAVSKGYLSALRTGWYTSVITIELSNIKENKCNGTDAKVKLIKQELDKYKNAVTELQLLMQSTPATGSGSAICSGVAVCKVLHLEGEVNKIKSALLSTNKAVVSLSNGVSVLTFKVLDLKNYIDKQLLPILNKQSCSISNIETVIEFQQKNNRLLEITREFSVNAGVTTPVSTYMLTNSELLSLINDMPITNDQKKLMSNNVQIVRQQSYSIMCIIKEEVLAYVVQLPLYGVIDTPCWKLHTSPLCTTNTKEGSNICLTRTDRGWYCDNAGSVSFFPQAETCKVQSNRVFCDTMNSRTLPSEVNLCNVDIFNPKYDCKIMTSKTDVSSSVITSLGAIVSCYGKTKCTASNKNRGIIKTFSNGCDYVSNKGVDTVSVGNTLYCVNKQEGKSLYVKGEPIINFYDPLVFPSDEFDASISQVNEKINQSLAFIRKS", "experiment": "SPR"}, "[2]": {"molecular_target": "T2, RSV F construct DS2 (stabilized prefusion F trimer) (human RSV A, Long strain (paper); …, stabilised)", "T2 chain": "T1 chain", "experiment": "SPR"}},
  "data": [
    {"binder": "B1", "values": [
      {"measurement": "kon", "setting": "[1]", "result": "1.39e+06", "unit": "M⁻¹ s⁻¹"},
      {"measurement": "kon", "setting": "[2]", "result": 114000, "unit": "M⁻¹ s⁻¹"}
    ]},
    {"binder": "B2", "values": [
      {"measurement": "kon", "setting": "[1]", "result": "4.33e+06", "unit": "M⁻¹ s⁻¹"},
      {"measurement": "kon", "setting": "[2]", "result": 438000, "unit": "M⁻¹ s⁻¹"}
    ]}
  ]
}
